Measurements from patent publication US20210147536A1 (MAB VENTURE BIOPHARM, published 2021).

Tests used:
[1] = target: T1, human LAG-3-6*His tag recombinant fusion protein (human, UniProt P18627 23-450, biotin-labelled in panning and in Example 9); assay: BLI Octet Red96, MV705-3 on AHC sensor, human LAG-3-6*His at 250 nM, 1:1 model
T1 construct: Bought protein; also called hLAG-3-6*his tag recombinant protein; human LAG-3-his tag recombinant fusion protein
T1 sequence: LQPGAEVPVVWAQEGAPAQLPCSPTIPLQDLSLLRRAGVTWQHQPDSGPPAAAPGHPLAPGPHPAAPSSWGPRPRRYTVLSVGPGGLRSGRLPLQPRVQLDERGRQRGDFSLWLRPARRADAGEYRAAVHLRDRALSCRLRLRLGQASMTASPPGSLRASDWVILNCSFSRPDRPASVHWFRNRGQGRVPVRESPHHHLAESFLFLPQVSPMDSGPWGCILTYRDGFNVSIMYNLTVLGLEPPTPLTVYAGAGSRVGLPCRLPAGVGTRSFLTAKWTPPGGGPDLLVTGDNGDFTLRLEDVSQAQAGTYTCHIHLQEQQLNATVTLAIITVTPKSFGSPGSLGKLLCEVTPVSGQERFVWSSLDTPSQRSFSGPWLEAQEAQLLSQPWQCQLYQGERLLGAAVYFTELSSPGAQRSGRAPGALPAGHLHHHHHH

[2] = target: T2, human LAG-3 on the cell surface (human, UniProt P18627 23-525); assay: cell-based or functional assay
T2 sequence (looked up): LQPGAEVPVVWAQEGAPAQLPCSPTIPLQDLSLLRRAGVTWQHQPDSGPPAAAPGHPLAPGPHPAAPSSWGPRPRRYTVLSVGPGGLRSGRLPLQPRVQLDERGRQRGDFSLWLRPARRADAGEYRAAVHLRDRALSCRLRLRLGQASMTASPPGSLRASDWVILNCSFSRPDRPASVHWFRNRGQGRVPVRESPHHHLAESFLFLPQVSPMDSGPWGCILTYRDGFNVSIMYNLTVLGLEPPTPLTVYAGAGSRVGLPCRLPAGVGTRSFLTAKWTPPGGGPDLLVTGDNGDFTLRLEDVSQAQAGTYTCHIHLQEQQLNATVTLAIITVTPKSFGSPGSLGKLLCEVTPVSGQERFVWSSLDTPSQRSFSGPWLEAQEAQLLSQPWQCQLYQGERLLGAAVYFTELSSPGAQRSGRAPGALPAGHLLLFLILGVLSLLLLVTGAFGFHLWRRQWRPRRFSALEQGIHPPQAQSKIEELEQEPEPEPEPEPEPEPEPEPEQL

[3] = target: T3, recombinant mouse LAG-3-6*His tag fusion protein (mouse, UniProt Q61790 23-442); assay: ELISA, antibody coated at 1 µg/ml, mouse LAG-3-6*His titrated, anti-His HRP
T3 construct: made in Expi293 cells from the mouse LAG-3 cDNA; also called mouse LAG-3 antigen
T3 sequence: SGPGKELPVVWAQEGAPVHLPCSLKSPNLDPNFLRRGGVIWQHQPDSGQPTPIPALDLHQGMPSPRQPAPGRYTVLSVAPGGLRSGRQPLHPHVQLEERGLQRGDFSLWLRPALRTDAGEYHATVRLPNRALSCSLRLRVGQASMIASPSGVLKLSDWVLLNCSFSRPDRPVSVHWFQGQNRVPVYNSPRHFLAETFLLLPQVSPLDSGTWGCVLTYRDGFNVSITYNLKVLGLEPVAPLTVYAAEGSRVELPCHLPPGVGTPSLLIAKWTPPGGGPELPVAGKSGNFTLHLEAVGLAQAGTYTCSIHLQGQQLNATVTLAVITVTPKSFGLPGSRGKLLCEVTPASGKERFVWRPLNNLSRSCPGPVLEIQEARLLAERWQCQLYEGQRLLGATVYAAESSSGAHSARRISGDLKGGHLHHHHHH

[4] = target: T2, human LAG-3 on the cell surface; assay: cell-based or functional assay; remark: listed apart in the source
[5] = target: T1, human LAG-3-6*His tag recombinant …; assay: ELISA, human LAG-3-6*His coated at 1 µg/ml, IgG4 titrated, anti-hIgG HRP
[6] = target: T1, human LAG-3-6*His tag recombinant …; assay: BLI Octet Red96, MV705-3 on AHC sensor, human LAG-3-6*His at 1000 nM, 1:1 model
[7] = target: T1, human LAG-3-6*His tag recombinant …; assay: BLI Octet Red96, MV705-3 on AHC sensor, human LAG-3-6*His at 500 nM, 1:1 model
[8] = target: T4, human LAG-3-mFc recombinant fusion protein (human); assay: flow cytometry, blocking of hLAG-3-mFc (10 µg/ml) binding to MHC class II on Daudi cells
T4 construct: also called hLAG-3-mFc
T4 chain: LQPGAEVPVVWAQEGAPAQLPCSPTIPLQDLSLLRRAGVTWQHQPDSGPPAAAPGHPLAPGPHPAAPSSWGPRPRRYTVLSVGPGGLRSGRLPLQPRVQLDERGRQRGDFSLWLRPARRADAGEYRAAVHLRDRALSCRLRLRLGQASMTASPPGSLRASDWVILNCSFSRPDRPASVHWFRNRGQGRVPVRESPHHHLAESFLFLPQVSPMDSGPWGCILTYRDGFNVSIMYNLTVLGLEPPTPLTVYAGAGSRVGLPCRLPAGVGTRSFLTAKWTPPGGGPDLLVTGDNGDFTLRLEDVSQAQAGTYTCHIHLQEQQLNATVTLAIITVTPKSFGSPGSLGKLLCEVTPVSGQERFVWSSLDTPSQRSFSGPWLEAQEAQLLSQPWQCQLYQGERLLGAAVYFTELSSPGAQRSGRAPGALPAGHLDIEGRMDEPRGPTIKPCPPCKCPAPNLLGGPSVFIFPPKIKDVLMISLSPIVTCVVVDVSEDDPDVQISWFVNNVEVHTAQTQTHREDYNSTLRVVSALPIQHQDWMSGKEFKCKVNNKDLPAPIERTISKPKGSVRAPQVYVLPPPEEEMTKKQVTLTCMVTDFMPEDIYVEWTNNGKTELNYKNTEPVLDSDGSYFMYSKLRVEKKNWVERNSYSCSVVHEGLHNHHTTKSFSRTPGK

B1: anti-human LAG-3 full human monoclonal antibody MV705-3 (antibody, human IgG4, V domains shown)
VH: EVQLLESGAEVKKPGASVKVSCKASGYTFTSYGISWVRQAPGQGLEWMGWISAYNGNTNYAQKLQGRVTMTTDTSTSTAYMELRSLRSDDTAVYYCARDGWWELLRPDDAFDIWGQGTTVTVSS
VL: QLVLTQSPSVSVSPGQTASITCSGDKLGDKYAYWYQQKPGQAPVLVIYYDSDRPSGIPERFSGSNSGNTATLTISRVEAGDEADYYCQVWDSSSDQVVFGGGTQLTVLG
notes: Full IgG4 with lambda light chain; also called MV705-3(DD + DD)
- koff [1]: < 1e-07 s⁻¹
- kon [1]: 13800 M⁻¹ s⁻¹
- EC50, ability to activate T cells in vitro (LAG3/NFAT Reporter-Jurkat) [2]: 0.13 µg/mL
- EC50 [3]: 2.6 µg/mL
- EC50 of NFAT reporter gene induction (bio-glo luciferase), LAG3/NFAT Reporter-Jurkat + Raji cells + superantigen [4]: 0.04 µg/mL
- EC50 [5]: 0.364 µg/mL
- Kd [6]: 1.79 nM
- koff [6]: 0.000106 s⁻¹
- kon [6]: 59300 M⁻¹ s⁻¹
- Kd [7]: 2.5 nM
- koff [7]: 9.95e-05 s⁻¹
- kon [7]: 39900 M⁻¹ s⁻¹
- IC50 [8]: 2.8 µg/mL
